Numbering of substitutions follows the chain as printed. Square brackets hold non-standard residues; d marks the D form. Ends that are not written are not given here. pS = N[C@@H](COP(=O)(O)O)C(=O)O
Legend:
Assay in all cases: PDK1 activity assay with T308tide
Type in all cases: biochemical
GST-PDK1 [Gln150Ala] = biological target: T1, GST-PDK1 [Gln150Ala] (Homo sapiens, UniProt O15530, Q150A); details: PDK1[Gln150Ala]; 20 μM
T1 construct: different protein constructs, comprising the full length protein or the catalytic domain alone; made in house; host or cells: HEK293 cells (pEBG-2T-PDK1 mutant)
T1 sequence (O15530 1-556 Q150A): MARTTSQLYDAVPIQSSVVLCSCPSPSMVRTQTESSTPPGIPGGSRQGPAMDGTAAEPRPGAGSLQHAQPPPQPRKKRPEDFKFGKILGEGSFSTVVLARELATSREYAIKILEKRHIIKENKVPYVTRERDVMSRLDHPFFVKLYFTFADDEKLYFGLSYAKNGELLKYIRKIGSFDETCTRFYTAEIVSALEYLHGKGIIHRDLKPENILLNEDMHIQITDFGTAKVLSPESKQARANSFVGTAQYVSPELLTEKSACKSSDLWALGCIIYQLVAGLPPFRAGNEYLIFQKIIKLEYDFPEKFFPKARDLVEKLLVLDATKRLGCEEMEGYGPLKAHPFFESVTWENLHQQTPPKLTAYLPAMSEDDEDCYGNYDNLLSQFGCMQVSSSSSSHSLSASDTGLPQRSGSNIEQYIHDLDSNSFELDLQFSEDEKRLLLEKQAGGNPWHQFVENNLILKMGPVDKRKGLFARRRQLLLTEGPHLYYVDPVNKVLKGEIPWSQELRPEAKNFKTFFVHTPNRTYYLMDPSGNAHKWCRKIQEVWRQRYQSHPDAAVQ
Protocol: (§1) Protein kinase activity tests were performed essentially as previously described (Balendran et al., 2000; Biondi et al., 2000; Biondi et al., 2001). Substrates used were either MBP (for PKCζ or polypeptides (Crosstide for PKB, S6K, SGK and PRK2; T308tide for PDK1, and Kemptide for PKA). PKA (Sigma) was measured in the presence of 100 μM cAMP. Alternatively, assays were performed in a 96 well format, aliquots spotted on p81 phosphocellulose papers (Whatmann), washed in 0.01% phosphoric acid, dried, and then exposed and analysed using Phospholmager technology (Storm, Molecular Dynamics). Activity measurements were performed in duplicates with less than 10% difference between duplicate pairs. Experiments were repeated at least twice, although most of the experiments were repeated multiple times, with similar results.
(§2) PDK1 activity assay was performed in a 20 μl mix containing 50 mM Tris-HCl pH 7.5, 0.05 mg/ml BSA, 0.1% β-mercaptoethanol, 10 mM MgCl2, 100 μM [γ^32P]ATP (5-50 cpm/pmol), 0.003% Brij, 150 ng PDK1, and T308tide (from 0.05 to 1 mM). PDK1 specific activity was approximately 5 U/mg (when measured at 1 mM T308tide). The effect of small compounds on PDK1 was repeated with proteins from different purification batches and with different protein constructs, comprising the full length protein or the catalytic domain alone, with similar results. […] This variability may be due to the PIFtide/compound-stimulated autophosphorylation of the activation loop in certain preparations having less than a 1:1 molar phosphorylation stoichiometry at this site.
(§3) PDK1 activity was measured at room temperature using a polypeptide substrate derived from the activation loop phosphorylation site of PKB, T308tide (0.1 mM). […] GST-PDK1 wt was purified in numerous occasions and the maximal activation level of different batches varied between 3 and 8 fold activation with PIFtide or compound 1. Variations in the basal activity and fold activation were also observed in mutants. Therefore, comparisons in the maximal level of activation between mutants should be performed with care. The data shown are from an experiment where PIFtide concentrations were tested between 50 nM and 20 µM and compound 1 concentrations were between 5 μM and 200 μM, in triplicate. AC50 and max. activity were estimated by fitting the data to a hyperbola using Kaleidagraph software. One Unit of PDK1 activity was defined as the amount required to catalyse the phosphorylation of 1 nmol of the T308tide in 1 min.

GST-PDK1 wt = biological target: T2, GST-PDK1 wt (Homo sapiens, UniProt O15530)
T2 construct: different protein constructs, comprising the full length protein or the catalytic domain alone; made in house; host or cells: HEK293 cells (pEBG-2T-PDK1)
T2 sequence (O15530 1-556): T1 sequence (O15530 1-556 Q150A) with A150Q
Protocol: as §1, §2, §3

GST-PDK1 [Ile119Ala] = biological target: T3, GST-PDK1 [Ile119Ala] (Homo sapiens, UniProt O15530, I119A); details: Ile119 mutant; P-HM-RSK 20 μM
T3 construct: different protein constructs, comprising the full length protein or the catalytic domain alone; made in house; host or cells: HEK293 cells (pEBG-2T-PDK1 mutant)
T3 sequence (O15530 1-556 I119A): T1 sequence (O15530 1-556 Q150A) with I119A, A150Q
Protocol: as §1, §2, §3

GST-PDK1 [Thr148Val] = biological target: T4, GST-PDK1 [Thr148Val] (Homo sapiens, UniProt O15530, T148V); details: PDK1[Thr148Val]; 20 μM
T4 construct: different protein constructs, comprising the full length protein or the catalytic domain alone; made in house; host or cells: HEK293 cells (pEBG-2T-PDK1 mutant)
T4 sequence (O15530 1-556 T148V): T1 sequence (O15530 1-556 Q150A) with T148V, A150Q
Protocol: as §1, §2, §3

Substance	activation of PDK1 mutant (in words) (GST-PDK1 [Gln150Ala])	activation of PDK1 (in words) (GST-PDK1 wt; PDK1 wild type)	activation of PDK1 mutant (in words) (GST-PDK1 [Ile119Ala])	activation of PDK1 mutant (in words) (GST-PDK1 [Thr148Val])	activation of PDK1 (in words) (GST-PDK1 wt; concentrations up to 500 µM, data not shown)
P-HM-PKB: phosphorylated HM polypeptide of PKB: KGAGGGGFPQFS(P)YSA (KGAGGGGFPQF[pS]YSA) [reference compound]	completely abolished	activated	completely abolished	completely abolished	
GFRDFDY [polypeptide comprising the complete hydrophobic motif present in PIFtide, reference compound]					did not activate PDK1
